The labels stand for the following.
B1: Table S3 B row 1118 (dsDNA)
DNA 1: CTCCCACCATCCACCGCAGCCACTTTCGCCCGTCCT
DNA 2: AGGACGGGCGAAAGTGGCTGCGGTGGATGGTGGGAG
B2: Table S3 B row 1939 (dsDNA)
DNA 1: TTGGTTCTGTGGTTTCAGGTGTGAGTTCCAGTGTGC
DNA 2: GCACACTGGAACTCACACCTGAAACCACAGAACCAA
B3: Table S3 B row 1266 (dsDNA)
DNA 1: AGAAAACCACATTCAATTCTCTTTACACAGGGTGTT
DNA 2: AACACCCTGTGTAAAGAGAATTGAATGTGGTTTTCT
B4: Table S3 B row 1984 (dsDNA)
DNA 1: TAAAACCAAACCACAGATGACACATTGCCTTTCCAC
DNA 2: GTGGAAAGGCAATGTGTCATCTGTGGTTTGGTTTTA
B5: Table S3 B row 1676 (dsDNA)
DNA 1: GTAAAATGCGGTCGGGTAGAAACCTACTTTCGGTCC
DNA 2: GGACCGAAAGTAGGTTTCTACCCGACCGCATTTTAC
B6: Table S3 B row 1521 (dsDNA)
DNA 1: CTCCGCCTTTCACCTCCTAGTAACCGCCCTCCCTTG
DNA 2: CAAGGGAGGGCGGTTACTAGGAGGTGAAAGGCGGAG
B7: Table S3 B row 1822 (dsDNA)
DNA 1: TCCTATTTTTACCGCAGTTGCACAGGCAATGAGGCG
DNA 2: CGCCTCATTGCCTGTGCAACTGCGGTAAAAATAGGA
B8: Table S3 B row 2632 (dsDNA)
DNA 1: TCTGTTTTGTGGGTTCCCTGCCCCCCTTCGGCCTTT
DNA 2: AAAGGCCGAAGGGGGGCAGGGAACCCACAAAACAGA
B9: Table S3 B row 244 (dsDNA)
DNA 1: GGTCTTTTCTGTGGTTCTGTCACCTCCTTTGTAAGT
DNA 2: ACTTACAAAGGAGGTGACAGAACCACAGAAAAGACC
B10: Table S3 B row 2668 (dsDNA)
DNA 1: TACAGTCTCTGTGGTTTACTGAGAGGAGGTGGTTCT
DNA 2: AGAACCACCTCCTCTCAGTAAACCACAGAGACTGTA
B11: Table S3 B row 1841 (dsDNA)
DNA 1: CTGCCCATCGCGGTTAACTTTTGCGCCTCCTTAAAG
DNA 2: CTTTAAGGAGGCGCAAAAGTTAACCGCGATGGGCAG
B12: Table S3 B row 2615 (dsDNA)
DNA 1: ACCCCCCAACCACAAGGCCCGTTTGCTGCCTCCCCA
DNA 2: TGGGGAGGCAGCAAACGGGCCTTGTGGTTGGGGGGT
B13: Table S3 B row 2767 (dsDNA)
DNA 1: CTTGCGGTCCCATCTTGCTTTTTTCTTGCGCTTTCC
DNA 2: GGAAAGCGCAAGAAAAAAGCAAGATGGGACCGCAAG
B14: Table S3 B row 1484 (dsDNA)
DNA 1: GTGAAGACCGCAAGTTGGGGCAGATGGCTCCCGACT
DNA 2: AGTCGGGAGCCATCTGCCCCAACTTGCGGTCTTCAC
B15: Table S3 B row 991 (dsDNA)
DNA 1: TCCCTTACCTTCATGCTGCCACCAAACCACCAAACC
DNA 2: GGTTTGGTGGTTTGGTGGCAGCATGAAGGTAAGGGA
B16: Table S3 B row 2775 (dsDNA)
DNA 1: CCTGTTTCGTGCCATCTGCCCTTCCTTTGTGGTCAA
DNA 2: TTGACCACAAAGGAAGGGCAGATGGCACGAAACAGG
B17: Table S3 B row 3999 (dsDNA)
DNA 1: ATGGAAATGTGGTTAAGAACTCCCTCTTTTACTAGA
DNA 2: TCTAGTAAAAGAGGGAGTTCTTAACCACATTTCCAT

The data set deals with RUNX1 (Homo sapiens, UniProt Q01196). Description: gcPBM; 2 nM RUNX1. The conditions noted are these: tags: N-terminal GST (pDEST15), kept (PMC6008103); label: surface-attached array probe.
Chain of RUNX1 (Q01196 whole entry): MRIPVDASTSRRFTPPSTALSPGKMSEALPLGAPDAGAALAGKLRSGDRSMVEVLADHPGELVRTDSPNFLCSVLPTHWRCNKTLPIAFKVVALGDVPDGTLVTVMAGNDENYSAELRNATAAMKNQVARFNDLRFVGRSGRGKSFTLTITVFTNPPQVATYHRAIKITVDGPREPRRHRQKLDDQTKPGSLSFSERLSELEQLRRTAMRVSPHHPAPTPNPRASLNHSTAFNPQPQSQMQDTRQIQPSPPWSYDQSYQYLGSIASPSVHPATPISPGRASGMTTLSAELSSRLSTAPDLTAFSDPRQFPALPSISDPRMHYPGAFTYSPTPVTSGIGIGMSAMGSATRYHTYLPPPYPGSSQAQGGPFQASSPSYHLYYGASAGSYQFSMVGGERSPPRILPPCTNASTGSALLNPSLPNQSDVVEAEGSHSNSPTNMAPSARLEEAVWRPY
As for B1, the binding signal is 3290 PBM fluorescence, median of replicate spots.

Turning to B2, the binding signal was 2910 PBM fluorescence, median of replicate spots. Then B3, with 3040 PBM fluorescence, median of replicate spots; and B4, with 2350 PBM fluorescence, median of replicate spots; and B5, with 2480 PBM fluorescence, median of replicate spots. The result for B6 reads 2240 PBM fluorescence, median of replicate spots. The result for B7 reads 3180 PBM fluorescence, median of replicate spots; that for B8, 2250 PBM fluorescence, median of replicate spots; that for B9, 2300 PBM fluorescence, median of replicate spots. As for B10, the binding signal is 2160 PBM fluorescence, median of replicate spots. The result for B11 reads 3570 PBM fluorescence, median of replicate spots; that for B12, 2690 PBM fluorescence, median of replicate spots; that for B13, 2370 PBM fluorescence, median of replicate spots.

With B14, the binding signal was 3440 PBM fluorescence, median of replicate spots. The result for B15 reads 2540 PBM fluorescence, median of replicate spots; that for B16, 2610 PBM fluorescence, median of replicate spots; that for B17, 2760 PBM fluorescence, median of replicate spots.

The values above are taken from publication PMC10681739, “High-throughput data and modeling reveal insights into the mechanisms of cooperative DNA-binding by transcription factor proteins”.
